Paper PMC7760575, “TORC2-Dependent Ypk1-Mediated Phosphorylation of Lam2/Ltc4 Disrupts Its Association with the β-Propeller Protein Laf1 at Endoplasmic Reticulum-Plasma Membrane Contact Sites in the Yeast Saccharomyces cerevisiae” (Biomolecules, 2020)
Numbering of substitutions follows the chain as printed. Names may count otherwise.

T1: GST-Dgr2 (S. cerevisiae, UniProt P32330 1-852)
T1 construct: Dgr2/Ykl121w, S. cerevisiae, WD40 repeat protein, paralog of Laf1; plasmid described only as pGEX4T-1 Dgr2, no limits stated; Probably the whole open reading frame (surmised); also called Ykl121w; pFR404; source: E. coli BL21(DE3), purified (glutathione beads); not shown: GST, N-terminal, kept
T1 sequence (looked up): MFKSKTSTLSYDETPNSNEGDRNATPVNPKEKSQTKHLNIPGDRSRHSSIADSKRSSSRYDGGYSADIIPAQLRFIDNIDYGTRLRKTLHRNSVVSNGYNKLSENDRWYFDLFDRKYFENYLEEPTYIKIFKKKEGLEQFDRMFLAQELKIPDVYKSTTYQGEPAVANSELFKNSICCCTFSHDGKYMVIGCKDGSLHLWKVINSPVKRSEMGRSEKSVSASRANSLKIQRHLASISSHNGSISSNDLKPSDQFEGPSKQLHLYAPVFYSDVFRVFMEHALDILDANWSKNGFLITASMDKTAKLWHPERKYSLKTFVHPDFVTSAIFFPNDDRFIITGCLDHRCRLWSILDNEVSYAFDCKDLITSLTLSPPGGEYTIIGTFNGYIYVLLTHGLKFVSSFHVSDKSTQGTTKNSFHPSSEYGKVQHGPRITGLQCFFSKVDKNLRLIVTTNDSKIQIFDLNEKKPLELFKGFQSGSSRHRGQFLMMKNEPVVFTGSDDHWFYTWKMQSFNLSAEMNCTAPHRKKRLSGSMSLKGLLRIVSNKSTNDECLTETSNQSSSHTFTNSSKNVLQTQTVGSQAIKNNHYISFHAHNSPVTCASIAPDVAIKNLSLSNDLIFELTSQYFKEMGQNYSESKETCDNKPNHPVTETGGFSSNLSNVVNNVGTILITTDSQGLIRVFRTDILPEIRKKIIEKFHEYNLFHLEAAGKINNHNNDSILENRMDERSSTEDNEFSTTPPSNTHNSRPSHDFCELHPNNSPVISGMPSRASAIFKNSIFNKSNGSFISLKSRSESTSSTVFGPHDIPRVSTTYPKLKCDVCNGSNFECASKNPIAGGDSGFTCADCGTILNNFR

T2: GST-Laf1 (S. cerevisiae, UniProt Q03177 1-834)
T2 construct: Laf1/Ymr102c, S. cerevisiae, WD40 repeat protein; plasmid described only as pGEX4T-1 Laf1, no limits stated; Probably the whole open reading frame (surmised); also called Ymr102c; Lam2/Ltc4-Associated Factor 1; source: E. coli BL21(DE3), purified (glutathione beads); not shown: GST, N-terminal, kept
T2 sequence (looked up): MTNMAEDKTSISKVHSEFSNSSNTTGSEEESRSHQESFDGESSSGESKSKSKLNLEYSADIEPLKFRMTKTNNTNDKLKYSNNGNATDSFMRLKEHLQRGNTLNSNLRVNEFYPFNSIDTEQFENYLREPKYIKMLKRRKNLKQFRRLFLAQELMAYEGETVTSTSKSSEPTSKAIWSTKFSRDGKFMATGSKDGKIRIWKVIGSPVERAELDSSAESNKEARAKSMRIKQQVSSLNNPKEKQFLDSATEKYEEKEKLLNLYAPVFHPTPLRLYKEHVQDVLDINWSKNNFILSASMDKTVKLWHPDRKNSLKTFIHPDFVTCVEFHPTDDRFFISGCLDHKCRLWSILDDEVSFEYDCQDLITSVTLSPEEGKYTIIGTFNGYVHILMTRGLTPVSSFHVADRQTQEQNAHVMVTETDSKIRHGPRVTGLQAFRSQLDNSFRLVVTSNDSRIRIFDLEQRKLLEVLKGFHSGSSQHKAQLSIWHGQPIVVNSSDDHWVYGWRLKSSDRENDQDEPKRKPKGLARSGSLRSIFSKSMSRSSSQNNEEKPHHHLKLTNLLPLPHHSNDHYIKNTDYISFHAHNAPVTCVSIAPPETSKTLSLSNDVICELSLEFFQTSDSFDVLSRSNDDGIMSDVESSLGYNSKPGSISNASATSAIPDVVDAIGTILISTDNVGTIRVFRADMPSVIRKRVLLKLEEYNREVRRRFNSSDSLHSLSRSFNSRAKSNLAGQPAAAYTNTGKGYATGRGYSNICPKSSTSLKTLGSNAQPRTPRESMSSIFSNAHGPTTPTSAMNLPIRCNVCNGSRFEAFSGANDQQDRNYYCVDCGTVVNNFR

B1: Lam2(482–1259)-(His)6 (domain or fragment, S. cerevisiae, UniProt Q06681 482-1259, looked up)
chain: LGPKELNTSYRNSTYIDMARFENSQSNLSSHRARSKTLPANKALENAVGDEGNSKRNSRYSSYSNDMAFDDADERKFRSMSKKFLNRRSFSPSNLGNKVIPGINLRNSFNKNRNSSSDFFSTNQGQQMPRTSTAGSGNIHAIMGLDSGNDDFKLEGIEYASEKKNSEFHTLFKDCDINPNEKLIVDHSCALSRDILLQGRMYISDAHIGFFSNILGWVSTVFIPFKEIVQIEKKTTAGIFPNGIVIDTLHTKYIFASFMSRDATFDLITDVWNQIILGKKYRNGFGNNDDGTISDSSSAFFDDSDDNDDDGDLDDDDPDINSTDMTSSDDIDADVFNESNDLGKNQKSTNYLLGPNKHSPTTADFKPSNNDHLVIEANINAPLGKVVNLLYGEDVSYYERILKAQKNFEISPIPNNFLTKKIRDYAYTKPLSGSIGPSKTKCLITDTLEHYDLEDYVKVLSITKNPDVPSGNIFSVKTVFLFSWDKNNSTKLTVYNSVDWTGKSWIKSMIEKGTFDGVADTTKIMISEIKKILSDEDSNINSKHQASNNESEEEIINLPTIGPPVHDPTEPDFQKGKDDTVIDEKINIPVPLGTVFSLLYGDDTSYIKKIIENQNNFNVCDIPKFVNNAREITYTKKLNNSFGPKQTKCIVTETIEHMDLNSFFMVKQIVRSPDVPYGSSFSVHTRFFYSWGDHNTTNMKVVTNVVWTGKSMLKGTIEKGSIDGQRSSTKQLVDDLKKIISNASSTKKKSRRRGKTVNKRKSSPSTIKNEKNEENFED
notes: also called Lam2/Ltc4/Ysp2 fragment; pFR391; source: E. coli BL21(DE3), purified (glutathione beads, cut off with TEV protease); not shown: GST, N-terminal, cleaved; His6, C-terminal, kept
B2: Lam4(371–1177)-(His)6 (domain or fragment, S. cerevisiae, UniProt P38800 371-1177, looked up)
chain: SNLERKTVPSKWSVVSSSTTDGVKPRRRAKSMISAMADKQNTSSDVLQDCKKRLSFNSSNGLTNNDPEYEDREPREMSKKFLNRRSFSPGSISMGMKVLPSTALKYSLNKVKNSTDIASTIIPRPSMSNGRPSSGLRRSSSKSFSSTPVNIIEPSEENGRQSSIRIKGVEYASEKKDAEFHAIFKDSGVSPNERLILDHSCALSRDILLQGRMYISDQHIGFYSNILGWVSTVFIPFKTIVQIEKRATAGIFPNGIVIDTLHTKYTFASFTSRDATYDLITEVWNQIILGKRFRSNSNNTNSSSNSISDDENDDYDDDYDDYGDDDDDLYDNSNNISDSTDMTSSVSIGKPEDLPMPLQTDTPYGTGIPPLGPKIHSPTETVYKPAPNEKLVNESTIHASLGRVVNILFGKDVSYIMAILKAQKNSDISPIPVLVDSPTVSEGKKRDYSYVKTTPGAIGPGKTKCMITETIQHFNLEEYVQVLQTTKTPDVPSGNSFYVRTVYLLSWANNNETKLKLYVSVEWTGKSLIKSPIEKGTFDGVTDATKILVEELGNILTRSATKRKRSSKENTVTVSTLPKMEPSSHAPTEPDIQKDKDDSIIRENENIPAPLGTVVQLLFGSNTEYMQKVITRDKNNVNVETIPKFTPSLVEGGSRHYEYTKKLNNSIGPKQTKCLLTESIEHMDINNYVLVTQTTKTPDVPSGSNFAVESKIFLFWGQHDTTNMTVITKINWTSKSFLKGAIEKGSVEGQKVSVDYMLSELRDIISRAKSKKPVKKVMKSHDKHRPFHSKVEQKSSESRKSDDNKDI
notes: also called Lam4/Ltc3 fragment; pFR407; source: E. coli BL21(DE3), purified (glutathione beads, cut off with TEV protease); not shown: GST, N-terminal, cleaved; His6, C-terminal, kept
B3: Lam2(849–1259)-(His)6 (domain or fragment, S. cerevisiae, UniProt Q06681 849-1259, looked up)
chain: SNNDHLVIEANINAPLGKVVNLLYGEDVSYYERILKAQKNFEISPIPNNFLTKKIRDYAYTKPLSGSIGPSKTKCLITDTLEHYDLEDYVKVLSITKNPDVPSGNIFSVKTVFLFSWDKNNSTKLTVYNSVDWTGKSWIKSMIEKGTFDGVADTTKIMISEIKKILSDEDSNINSKHQASNNESEEEIINLPTIGPPVHDPTEPDFQKGKDDTVIDEKINIPVPLGTVFSLLYGDDTSYIKKIIENQNNFNVCDIPKFVNNAREITYTKKLNNSFGPKQTKCIVTETIEHMDLNSFFMVKQIVRSPDVPYGSSFSVHTRFFYSWGDHNTTNMKVVTNVVWTGKSMLKGTIEKGSIDGQRSSTKQLVDDLKKIISNASSTKKKSRRRGKTVNKRKSSPSTIKNEKNEENFED
notes: tandem StARkin domains, PH domain removed; also called pFR409; source: E. coli BL21(DE3), purified (glutathione beads, cut off with TEV protease); not shown: GST, N-terminal, cleaved; His6, C-terminal, kept
B4: Lam2(482-1259; T518A L519A T1237A V1238A)-(His)6 (domain or fragment, S. cerevisiae, UniProt Q06681 482-1259, looked up)
chain: B1 chain with T37A, L38A, T756A, V757A
notes: also called pFR411; source: E. coli BL21(DE3), purified (glutathione beads, cut off with PreScission protease); not shown: GST, N-terminal, cleaved; His6, C-terminal, kept
B5: Lam2(482–1259; ∆644–760)-(His)6 (domain or fragment, S. cerevisiae, UniProt Q06681 482-1259, looked up)
chain: LGPKELNTSYRNSTYIDMARFENSQSNLSSHRARSKTLPANKALENAVGDEGNSKRNSRYSSYSNDMAFDDADERKFRSMSKKFLNRRSFSPSNLGNKVIPGINLRNSFNKNRNSSSDFFSTNQGQQMPRTSTAGSGNIHAIMGLDSGNDDFKLEGIEYASEKYRNGFGNNDDGTISDSSSAFFDDSDDNDDDGDLDDDDPDINSTDMTSSDDIDADVFNESNDLGKNQKSTNYLLGPNKHSPTTADFKPSNNDHLVIEANINAPLGKVVNLLYGEDVSYYERILKAQKNFEISPIPNNFLTKKIRDYAYTKPLSGSIGPSKTKCLITDTLEHYDLEDYVKVLSITKNPDVPSGNIFSVKTVFLFSWDKNNSTKLTVYNSVDWTGKSWIKSMIEKGTFDGVADTTKIMISEIKKILSDEDSNINSKHQASNNESEEEIINLPTIGPPVHDPTEPDFQKGKDDTVIDEKINIPVPLGTVFSLLYGDDTSYIKKIIENQNNFNVCDIPKFVNNAREITYTKKLNNSFGPKQTKCIVTETIEHMDLNSFFMVKQIVRSPDVPYGSSFSVHTRFFYSWGDHNTTNMKVVTNVVWTGKSMLKGTIEKGSIDGQRSSTKQLVDDLKKIISNASSTKKKSRRRGKTVNKRKSSPSTIKNEKNEENFED
notes: also called ∆PH; source: E. coli BL21(DE3), purified (glutathione beads, cut off with TEV protease); not shown: GST, N-terminal, cleaved; His6, C-terminal, kept

Target: T1, GST-Dgr2
Assay: pull-down; GST fusion (bait) and His6-tagged Lam fragment incubated 1 h at 4 °C, complexes on glutathione-agarose beads; binding buffer 81 mM NaCl, 4.5 mM KCl, 1.35 mM MgCl2, 0.09% Triton X-100, 0.1 mg/mL BSA, 20 mM HEPES pH 7.5; four washes; immunoblot (anti-His, anti-GST)
Conditions: both partners purified

binding result | Binder
binds | B1
binds | B2

Target: T2, GST-Laf1
Assay: as above
Conditions: both partners purified

binding result | Binder
binds | B3
binds | B1
binds | B4
binds | B5
binds | B2
